Consider one substance from paper PMC9708728.

The test concerns the target SARS-CoV-2 RBD (R319-F541) with a C-terminal His tag (SARS-CoV-2) (UniProt P0DTC2). Briefly: SEC + other: non-reducing SDS-PAGE.

Take “SARS-CoV-2 RBD (R319-F541) with a C-terminal His tag (from UniProt P0DTC2 319-541) (domain or fragment)”: the percent dimer worked out at 30% and the stoichiometry N (as a rule, a count of units in the complex or per binding partner) was determined as 2.
